Series [1] has as its target T1, Human alpha-thrombin (Factor IIa) (Homo sapiens, UniProt P00734;P00734 328-363;364-622). In words: bead fluorescence binding.
For series [2], the target named is T1, Human alpha-thrombin (Factor IIa). Kind of series: bead fluorescence binding. The source holds these as a separate data set.

Like-named read-outs stand apart in the source and are kept apart here.

B1: SAM20-20 (mixed)
DNA 1: ACGTGAGAGCAGTCCGTGGTAGGGCAGGTTGGGGTGACTCATACGACGA
DNA 2: GCTCTCACGTTCGTCGTATG
Turning to B1, in series [1], the binding result was “binds”.

B2: SAM16-16 with EcoRI site, EcoRI digested (mixed)
DNA 1: AATTCCGAAGTCCGTGGTAGGGCAGGTTGGGGTGACTATCGACGG
DNA 2: TCGG
DNA 3: AATTCCGTCGAT
Take B2: in series [2], the affinity, expressed as Kd, was 56.3 ± 5.48 nM.

B3: SAM24-24 (mixed)
DNA 1: ACGTGAGAGCAGAGTCCGTGGTAGGGCAGGTTGGGGTGACTGACATACGACGA
DNA 2: CTGCTCTCACGTTCGTCGTATGTC
Consider B3, for which the Kd (as a rule, the free concentration of one partner at which half of the binding sites on the other are occupied at equilibrium, for simple one-to-one binding) in series [1] worked out at 30.9 ± 5.67 nM.

B4: SAM22-22 (mixed)
DNA 1: ACGTGAGAGCAAGTCCGTGGTAGGGCAGGTTGGGGTGACTACATACGACGA
DNA 2: TGCTCTCACGTTCGTCGTATGT
Turning to B4, in series [1], the binding result is given as “binds”.

B5: SAM16-16 (SAM16 with gap = 0) (mixed)
DNA 1: ACGTGAGAAGTCCGTGGTAGGGCAGGTTGGGGTGACTTACGACGA
DNA 2: TCTCACGTTCGTCGTA
Molecule B5 came in with a Kd in series [1] of 2010 ± 87.3 nM.

B6: SAM16 with gap = 3 (mixed)
DNA 1: ACGTGAGAAGTCCGTGGTAGGGCAGGTTGGGGTGACTTACGACGA
DNA 2: TCTCACGTTTTTCGTCGTA
B6: in series [1], the Kd was 11.6 ± 2.87 nM.

(Values after publication doi:10.1101/2022.07.28.501929.)
